The target of this assay is T1, human CD48 (full-length hCD48), on cells (human, UniProt P09326 27-220).
T1 construct: also called membrane-associated CD48
T1 sequence: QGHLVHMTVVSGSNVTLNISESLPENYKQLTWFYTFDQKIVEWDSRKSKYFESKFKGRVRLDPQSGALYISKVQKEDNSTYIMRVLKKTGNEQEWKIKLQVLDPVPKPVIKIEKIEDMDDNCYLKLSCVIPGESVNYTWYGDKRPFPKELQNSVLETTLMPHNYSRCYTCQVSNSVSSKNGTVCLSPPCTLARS
The assay can be described thus: not told at this place (summary sentence in the description). As for the experimental part: Equilibrium binding assays were performed on transiently expressed hCD48. Full-length hCD48 in the expression vector pDC409 was transfected into CV-1/EBNA cells and these cells were diluted 1:20 into a carrier cell (Daudi). Serial dilutions of NAIL-Fc in binding media (RPMI 1640), 2.5% bovine serum albumin, […] HEPES, 0.02% Na azide [pH 7.2]) were incubated with cells (combination of carrier cells and transiently expressed cells 2.5×10⁶ combined cells/well) for 2 hours at 4° C. in a total of […] in a 96-well microtiter plate. The plate was centrifuged and the supernatants were aspirated. One-hundred fifty microliters of ¹²⁵I goat anti-human IgG Fcγ (Jackson Immunoresearch Laboratories, Inc., West Grove, Pa.; cat #109-006-098) was added to each well and cells were incubated another 1 hour at 4° C. Free and bound probes were separated by the pthalate oil separation method, essentially as described (Dower et al., J.Immunol. 132:751-758, 1984). Goat anti-human IgG Fcγ was labeled with […] using solid phase chloramine T analog (Iodogen; Pierce Chemical, Rockford, Ill.) to a specific radioactivity of 2.11×10¹⁵ cpm/mmol. […] No binding of C1.7-Fc or CD48-Fc proteins could be detected on nontransfected cells.

B1: NAIL-Fc polypeptide (soluble NAIL-Fc fusion protein) (Fc fusion)
chain: CQGSADHVVSISGVPLQLQPNSIQTKVDSIAWKKLLPSQNGFHHILKWENGSLPSNTSNDRFSFIVKNLSLLIKAAQQQDSGLYCLEVTSISGKVQTATFQVFVFDKVEKPRLQGQGKILDRGRCQVALSCLVSRDGNVSYAWYRGSKLIQTAGNLTYLDEEVDINGTHTYTCNVSNPVSWESHTLNLTQDCQNAHQEFRRSCDKTHTCPPCPAPEAEGAPSVFLFPPKPKDTLMISRTPEVTCVVVDVSHEDPEVKFNWYVDGVEVHNAKTKPREEQYNSTYRVVSVLTVLHQDWLNGKEYKCKVSNKALPAPIEKTISKAKGQPREPQVYTLPPSREEMTKNQVSLTCLVKGFYPSDIAVEWESNGQPENNYKTTPPVLDSDGSFFLYSKLTVDKSRWQQGNVFSCSVMHEALHNHYTQKSLSLSPGK
notes: also called C1.7-Fc; soluble NAIL polypeptide
Consider B1, for which the Kd (usually a measure of binding affinity in units of concentration) is around 0.1 nM.

(Values after patent US20080081043A1 (published 2008).)
